Where a chain is given by its changes, count along the chain named.

The labels stand for the following.
T1: CD123 Protein, His Tag, Acro Biosciences Cat. No. ILA-H52H6 (Homo sapiens (Human), UniProt P26951 19-305)
T1 construct: Bought protein; not shown: His tag
T1 sequence: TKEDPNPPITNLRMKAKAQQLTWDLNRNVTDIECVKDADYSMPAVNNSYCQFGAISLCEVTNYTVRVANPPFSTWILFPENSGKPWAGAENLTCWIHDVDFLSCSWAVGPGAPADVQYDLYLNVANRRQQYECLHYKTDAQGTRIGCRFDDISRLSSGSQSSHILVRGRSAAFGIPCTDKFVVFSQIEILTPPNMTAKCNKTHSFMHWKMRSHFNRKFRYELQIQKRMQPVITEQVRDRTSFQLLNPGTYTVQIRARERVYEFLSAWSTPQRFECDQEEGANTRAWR

B1: MYT1253 (antibody, V domains shown)
VH: QVQLVQSGAEVKKPGASVKVSCKASGHIFTSSIMHWVRQAPGQGLEWIGYIKPYNDGTKYNEKFKGRATLTSDRSTSTAYMELSSLRSEDTAVYYCAREGGNDYYDTMDYWGQGTLVTVSS
VL: DIQMTQSPSSLSASVGDRVTITCRASQDINSYLSWFQQKPGKAPKTLIYRVNRLVDGVPSRFSGSGSGNDYTLTISSLQPEDFATYYCLQYDAFPYTFGQGTKVEIK
notes: IgG
B2: MYT1279 (antibody, V domains shown)
VH: B1 VH with H27Y, A97H
VL: B1 VL
notes: IgG
B3: MYT1256 (antibody, V domains shown)
VH: B1 VH with H27Y, T30H
VL: B1 VL
notes: IgG
B4: MYT1274 (antibody, V domains shown)
VH: B1 VH with H27Y, E62H
VL: B1 VL
notes: IgG
B5: MYT1278 (antibody, V domains shown)
VH: B1 VH with H27Y, G66H
VL: B1 VL
notes: IgG
B6: MYT1267 (antibody, V domains shown)
VH: B1 VH with H27Y, N55H
VL: B1 VL
notes: IgG
B7: MYT1287 (antibody, V domains shown)
VH: B1 VH with H27Y, Y105H
VL: B1 VL
notes: IgG
B8: MYT1257 (antibody, V domains shown)
VH: B1 VH with H27Y, S31H
VL: B1 VL
notes: IgG
B9: MYT1268 (antibody, V domains shown)
VH: B1 VH with H27Y, D56H
VL: B1 VL
notes: IgG
B10: MYT1284 (antibody, V domains shown)
VH: B1 VH with H27Y, N102H
VL: B1 VL
notes: IgG
B11: MYT1277 (antibody, V domains shown)
VH: B1 VH with H27Y, K65H
VL: B1 VL
notes: IgG
B12: MYT1270 (antibody, V domains shown)
VH: B1 VH with H27Y, T58H
VL: B1 VL
notes: IgG
B13: MYT1255 (antibody, V domains shown)
VH: B1 VH with H27Y, F29H
VL: B1 VL
notes: IgG
B14: MYT1276 (antibody, V domains shown)
VH: B1 VH with H27Y, F64H
VL: B1 VL
notes: IgG
B15: MYT1286 (antibody, V domains shown)
VH: B1 VH with H27Y, Y104H
VL: B1 VL
notes: IgG
B16: MYT1263 (antibody, V domains shown)
VH: B1 VH with H27Y, I51H
VL: B1 VL
notes: IgG
B17: MYT1272 (antibody, V domains shown)
VH: B1 VH with H27Y, Y60H
VL: B1 VL
notes: IgG
B18: MYT1262 (antibody, V domains shown)
VH: B1 VH with H27Y, Y50H
VL: B1 VL
notes: IgG
B19: MYT1258 (antibody, V domains shown)
VH: B1 VH with H27Y, S32H
VL: B1 VL
notes: IgG
B20: MYT1275 (antibody, V domains shown)
VH: B1 VH with H27Y, K63H
VL: B1 VL
notes: IgG
B21: MYT1259 (antibody, V domains shown)
VH: B1 VH with H27Y, I33H
VL: B1 VL
notes: IgG
B22: MYT1260 (antibody, V domains shown)
VH: B1 VH with H27Y, M34H
VL: B1 VL
notes: IgG
B23: MYT1280 (antibody, V domains shown)
VH: B1 VH with H27Y, R98H
VL: B1 VL
notes: IgG
B24: MYT1261 (antibody, V domains shown)
VH: B1 VH with H27Y, H35A
VL: B1 VL
notes: IgG
B25: MYT1285 (antibody, V domains shown)
VH: B1 VH with H27Y, D103H
VL: B1 VL
notes: IgG
B26: MYT1252 (antibody, V domains shown)
VH: B1 VH with G26H, H27Y
VL: B1 VL
notes: IgG
B27: MYT1271 (antibody, V domains shown)
VH: B1 VH with H27Y, K59H
VL: B1 VL
notes: IgG
B28: MYT1254 (antibody, V domains shown)
VH: B1 VH with H27Y, I28H
VL: B1 VL
notes: IgG
B29: MYT1283 (antibody, V domains shown)
VH: B1 VH with H27Y, G101H
VL: B1 VL
notes: IgG
B30: MYT1269 (antibody, V domains shown)
VH: B1 VH with H27Y, G57H
VL: B1 VL
notes: IgG
B31: MYT1273 (antibody, V domains shown)
VH: B1 VH with H27Y, N61H
VL: B1 VL
notes: IgG
B32: MYT1265 (antibody, V domains shown)
VH: B1 VH with H27Y, P53H
VL: B1 VL
notes: IgG
B33: MYT1282 (antibody, V domains shown)
VH: B1 VH with H27Y, G100H
VL: B1 VL
notes: IgG
B34: MYT1266 (antibody, V domains shown)
VH: B1 VH with H27Y, Y54H
VL: B1 VL
notes: IgG

The target of the test is T1, CD123 Protein, His Tag, Acro …. The test can be described thus: BLI, IgG on anti-human Fc sensor, 50 nM CD123, pH 7.4 and pH 5.4. The source says: We selected IMGN632 (Heavy chain SEQ ID NO: 1, Light chain SEQ ID NO: 2) as a CD123-binding monoclonal antibody for pH engineering via histidine scanning. Briefly, CDRs in the heavy chain were identified using the methods described by Kabat et al (Kabat et al. (1992) Sequences of Proteins of Immunological Interest, DIANE publishing) and IMGT (Lefranc M P (1999) “The IMGT unique numbering for Immunoglobulins, T cell receptors and Ig-like domains” The Immunologist 7, 132-136), and for each CDR, residues falling under either or both Kabat and IMGT CDR definitions were called as CDR residues. To generate pH-dependent sequence variants, individual amino acid residues within the heavy chain CDRs were systematically substituted with a histidine, one at a time (MYT1252-MYT1292). In cases where the starting CDR residue was a histidine, it was mutated to an alanine. Antibody variants with only one histidine or alanine mutation in a heavy chain CDR were generated by co-transfection of Expi293 cells with a) one heavy chain sequence variant, and b) the corresponding starting ABPC light chain using methods known to the art. After allowing for four days of protein expression, cell culture supernatants were collected, quantified by SDS-PAGE analysis (FIG. 1), and the pH dependence of the variant was evaluated using biolayer interferometry (BLI) on an Octet RED 384 instrument. For constructs MYT1252, MYT1254-MYT1287, and MYT1289-1292, 104, of cell culture supernatant was diluted into 1904, of 1× PBST pH 7.4. For MYT1253 and MYT1288 254, and 504, of cell culture supernatant was diluted into 1754, and 1504, respectively. […] The resulting diluted supernatants were then captured on an anti-human Fc sensor (Forte Bio). A baseline was established using 1× PBST (50 mM Potassium Phosphate Buffer+150 mM NaCl+0.05% Tween 20) pH 7.4, and the sensor was associated with 50 nM of CD123 (CD123 Protein, His Tag, Acro Biosciences Cat. No. ILA-H52H6, Lot No. 1741d-89CF1-KB) in 1×PBST pH 7.4 for 120 sec to generate an association curve. In the dissociation phase, the antibody-antigen complex on the sensor was exposed to 1× PBST pH 7.4 for 300-600 sec. Baseline, association, and dissociation were repeated using 1×PBST pH 5.4 throughout in a separate condition.
Background: Biolayer interferometry detects binding as a change in optical thickness at a sensor tip.
B1: the binding result is “binds”. The entry for B2 is “binds”; for B3 it is “binds”; for B4 it is “binds”. Turning to B5, the binding result is “binds”. As for B6, the entry is “binds”; as for B7, “binds”. The entry for B8 is “binds”; for B9 it is “binds”. For the molecule B10, the binding result is “binds”. As to B11, the binding result is reported as “binds”.

As for B12, the binding result is reported as “binds”. The entry for B13 is “binds”.

B14: the binding result is listed as “binds”.

Regarding B15, the binding result is “binds”.

For B16, the binding result is on record as “binds”.

In the case of B17, the binding result is on record as “binds”. The entry for B18 is “binds”.

B19: the binding result is reported as “binds”. As to B20, the binding result is listed as “binds”. On to B21, for which the binding result is given as “binds”. As for B22, the binding result is “binds”. The entry for B23 is “binds”; for B24 it is “binds”. The entry for B25 is “binds”; for B26 it is “binds”. Regarding B27, the binding result was “binds”. In the case of B28, the binding result is listed as “binds”. The entry for B29 is “binds”; for B30 it is “binds”.

As to B31, the binding result is “binds”. Take B32: the binding result is recorded as “binds”. The entry for B33 is “binds”; for B34 it is “binds”.
